Key:
[1] = biological target: human FcRn receptor (neonatal Fc receptor) (human) (UniProt P55899); assay: SPR
[2] = biological target: BG505 DS-SOSIP.664 (gp140 trimer) (HIV (BG505)) (UniProt Q2N0S6); assay: SPR

Chain of griffithsin (GRFT) (P84801 whole entry): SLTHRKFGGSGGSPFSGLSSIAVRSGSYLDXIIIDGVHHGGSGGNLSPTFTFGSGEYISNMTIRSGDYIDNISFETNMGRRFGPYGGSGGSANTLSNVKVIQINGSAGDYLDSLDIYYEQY

| Substance | Kd [1] | koff [2] | kon [2] |
| --- | --- | --- | --- |
| VRC01 (standard anti-HIV broadly neutralizing antibody) | 78.2 nM | – | – |
| griffithsin (GRFT) (from UniProt P84801 1-121) (natural protein) | – | 0.0136 s⁻¹ | 1.42e+07 M⁻¹ s⁻¹ |

From publication PMC12266039
